Laboratory results reported in publication doi:10.1101/2025.05.14.653996.

Target: actin filament, unlabelled segment of recombinant cytoplasmic β-actin (UniProt P60709)
Test: TIRF microscopy of single actin filaments under flow in a microfluidic chamber

| cluster detachment, fold faster at 50 mM KCl than at 100 mM KCl [fold] | fold decrease of the median detachment time from 0.01 to 0.04 pN per Tpm dimer [fold] | cluster detachment, fold slower than sfGFP-Tpm1.6 [fold] | Substance |
| --- | --- | --- | --- |
| 36 | > 100 | – | sfGFP-Tpm1.6 (natural protein) |
| – | – | 5.5 | sfGFP-Tpm1.7 (natural protein) |
